Data published in paper PMC12509902, “PRMT1/PRMT5-Mediated Differential Arginine Methylation of CRIP1 Promotes the Recurrence of Small Cell Lung Cancer after Chemotherapy” (International Journal of Biological Sciences, 2025).

Target: T1, 3×Flag-PRMT5 (UniProt O14744 1-637)
T1 construct: Protein arginine methyltransferase 5 (PRMT5), from plasmid pCDH-CMV-3×Flag-PRMT5
Assay: pull-down; GST pull-down as described in ref. 23; GST-tagged protein expressed in BL21; Flag-tagged protein purified from HEK-293T by Flag affinity gel and 3× FLAG peptide elution; the paper calls the binding direct
Conditions: both partners purified

T1 sequence (O14744 whole entry): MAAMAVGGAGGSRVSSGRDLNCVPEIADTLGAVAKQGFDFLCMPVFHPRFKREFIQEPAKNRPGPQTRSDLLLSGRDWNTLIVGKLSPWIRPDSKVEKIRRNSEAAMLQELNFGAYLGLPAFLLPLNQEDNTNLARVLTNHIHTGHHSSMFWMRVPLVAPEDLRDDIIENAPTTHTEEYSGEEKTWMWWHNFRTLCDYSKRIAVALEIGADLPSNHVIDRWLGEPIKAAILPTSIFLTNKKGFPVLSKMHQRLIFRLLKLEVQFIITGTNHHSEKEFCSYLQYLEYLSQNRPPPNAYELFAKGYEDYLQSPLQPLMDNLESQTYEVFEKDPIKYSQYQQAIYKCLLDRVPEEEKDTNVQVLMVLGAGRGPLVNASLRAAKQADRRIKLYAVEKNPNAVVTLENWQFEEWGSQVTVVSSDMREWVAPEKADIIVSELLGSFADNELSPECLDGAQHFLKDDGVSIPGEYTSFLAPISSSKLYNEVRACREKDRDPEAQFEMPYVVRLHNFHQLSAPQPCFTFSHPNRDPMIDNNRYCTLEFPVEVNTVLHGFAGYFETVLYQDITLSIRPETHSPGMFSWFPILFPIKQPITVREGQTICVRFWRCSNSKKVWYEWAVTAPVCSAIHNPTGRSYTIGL

B1: GST-CRIP1, full-length (FL), wild type (natural protein, UniProt P50238 1-77, looked up)
chain: MPKCPKCNKEVYFAERVTSLGKDWHRPCLKCEKCGKTLTSGGHAEHEGKPYCNHPCYAAMFGPKGFGRGGAESHTFK
notes: Cysteine-rich intestinal protein 1 (CRIP1), full length, in pGEX-6P-1; also called GST-CRIP1 WT; source: E. coli BL21, induced with 1 mM IPTG
- binding result: binds
